Measured values: patent US20200277339A1 (GENOME PROTECTION, published 2020)
Positions count from the first letter of the chain named.

B1: CBLB502 variant 467 (ligand)
chain: MRGSHHHHHHGMASMTGGQQMGRDLYDLVPRGSAKDPMAQVINTNSLSLLTQNNLNKSQSSLSSAIERLSSGLRINSAKDDAAGQAIANRFTSNIKGLTQASRNANDGISIAQTTEGALNEINNNLQRVRELSVQATNGTNSDSDLKSIQDEIQQRLEEIDRVSNQTQFNGVKVLSQDNQMKIQVGANDGETITIDLQKIDVKSLGLDGFNVNSPGISGGGGGILDSMGTLINEDAAAAKKSTANPLASIDSALSKVDAVRSSLGAIQNRFDSAITNLGNTVTNLNSARSRIEDA
B2: CBLB502 variant 445 (ligand)
chain: MRGSHHHHHHGMASMTGGQQMGRDLYDLVPRGSAKDPMAQVINTNSLSLLTQNNLNKSQSSLSSAIERLSSGLRINSAKDDAAGQAIANRFTSNIKGLTQASRNANDGISIAQTTEGALNEINNNLQRVRELSVQATNGTNSDSDLKSIQDEIQQRLEEIDRVSNQTQFNGVKVLSQDNQMKIQVGANDGETITIDLQKIDVKSLGLDGFNVNSPGISGGGGGILDSMGTLINEDAAAAKKSTANPLASIDSALSKVDAVRSSLGAIQNRFD
B3: CBLB502 variant MF227C (ligand)
chain: MSGLRINSAKDDAAGQAIANRFTSNIKGLTQASRNANDGISIAQTTEGALNEINNNLQRVRELSVQATNGTNSDSDLKSIQDEIQQRLEEIDRVSNQTQFNGVKVLSQDNQMKIQVGANDGETITIDLQKIDVKSLGLDGFNVNSPGSTANPLASIDSALSKVDAVRSSLGAIQNRFDSAITNLGNTVTNLNSARSRIEDADYANQVPQNVLSLLVPRGSHHHHHHG
B4: CBLB502 (ligand)
chain: not shown
B5: CBLB502 variant 485D (ligand)
chain: MSGLRINSAKDDAAGQAIANRFTSNIKGLTQASRNANDGISIAQTTEGALNEINNNLQRVRELSVQATNGTNSDSDLKSIQDEIQQRLEEIDRVSNQTQFNGVKVLSQDNQMKIQVGANDGETITIDLQKIDVKSLGLDGFNVNSPGSTANPLASIDSALSKVDAVRSSLGAIDSAITALGNTVTNLNSARSRIEDADYATEVSNMSKAQILQQAGLVPRGSHHHHHHG
B6: CBLB502 variant 461 (ligand)
chain: MRGSHHHHHHGMASMTGGQQMGRDLYDLVPRGSAKDPMAQVINTNSLSLLTQNNLNKSQSSLSSAIERLSSGLRINSAKDDAAGQAIANRFTSNIKGLTQASRNANDGISIAQTTEGALNEINNNLQRVRELSVQATNGTNSDSDLKSIQDEIQQRLEEIDRVSNQTQFNGVKVLSQDNQMKIQVGANDGETITIDLQKIDVKSLGLDGFNVNSPGISGGGGGILDSMGTLINEDAAAAKKSTANPLASIDSALSKVDAVRSSLGAIQNRFDSAITNLGNTVTNLNSAR
B7: CBLB502 mutant MIXC (ligand)
chain: MSGLRINSAKDDAAGQAIANRFTSNIKGLTQASRNANDGISIAQTTEGALNEINNNLQRVRELSVQATNGTNSDSDLKSIQDEIQQRLEEIDRVSNQTQFNGVKVLSQDNQMKIQVGANDGETITIDLQKIDVKSLGLDGFNVNSPGSTANPLASIDSALSKVDAVRSSLGAIQARFAAAIANLGNTVTNLNSARSRIEDADYATEVSNMSKAQILQQAGTSVLAQANQVPQNVLSLLVPRGSHHHHHHG
B8: CBLB502 mutant MIM1 (ligand)
chain: MRGSHHHHHHGMASMTGGQQMGRDLYDDDDKDPMAQVINTNSLSLLTQNNLNKSQSSLSSAIERLSSGLRINSAKDDAAGQAIANRFTSNIKGLTQASRNANDGISIAQTTEGALNEINNNLQRVRELSVQATNGTNSDSDLKSIQDEIQQRLEEIDRVSNQTQFNGVKVLSQDNQMKIQVGANDGETITIDLQKIDVKSLGLDGFNVNSPGISGGGGGILDSMGTLINEDAAAAKKSTANPLASIDSALSKVDAVRSSLGAIQNRFDSAITNLGNTVTALASARSRIEDADYATEVSNMSKAQILQQAGTSVLAQANQVPQNVLSLLR
B9: CBLB502 mutant MIM3 (ligand)
chain: B8 chain with N273A, N276A, R285A
B10: CBLB502 mutant MIM2 (ligand)
chain: B8 chain with R285A
B11: CBLB502 mutant MIM5 (ligand)
chain: B8 chain with Q264A, N265K, R266A, N273A, N276A, R285A
B12: CBLB502 mutant MIM4 (ligand)
chain: MRGSHHHHHHGMASMTGGQQMGRDLYDDDDKDPMAQVINTNSLSLLTQNNLNKSQSSLSSAIERLSSGLRINSAKDDAAGQAIANRFTSNIKGLTQASRNANDGISIAQTTEGALNEINNNLQRVRELSVQATNGTNSDSDLKSIQDEIQQRLEEIDRVSNQTQFNGVKVLSQDNQMKIQVGANDGETITIDLQKIDVKSLGLDGFNVNSPGISGGGGGILDSMGTLINEDAAAAKKSTANPLASIDSALSKVDAVRSSLGAIDSAITALGATVTALASAASRIEDADYATEVSNMSKAQILQQAGTSVLAQANQVPQNVLSLLR
B13: CBLB502 mutant 33MIMX (ligand)
chain: MRGSHHHHHHGMASMTGGQQMGRDLYDLVPRGSAKDPSGLRINSAKDDAAGQAIANRFTSNIKGLTQASRNAADGISIAQTTEGALNEINNNLQRVRELSVQATNGTNSDSDLKSIQDEIQQRLEEIDRVSNQTQANGVKVLSQDNAMKIQVGANDGAAITIDLQKIDVKSLGLDGFNVNSPGISGGGGGILDSMGTLINEDAAAAKKSTANPLASIDSALSKVDAVRSSLGAIQARFAAAIANLGNTVTNLNSARSRIEDADYATEVSNMSKAQILQQAGTSVLAQANQVPQNVLSLLR

Molecular target: TLR5 of the cell-based reporter assays
Assay: cell-based or functional assay

In order of falling “Relative EC50 vs 502, Signaling (LecZ)” value:
1. B2  694 fold vs 502
2. B6  105 fold vs 502
3. B1  57 fold vs 502
4. B5  44 fold vs 502
5. B3  5.5 fold vs 502
6. B4  1 fold vs 502

In order of rising “Relative EC50 vs 502, Signaling (Luc)” value:
1. B4  1 fold vs 502
2. B1  71 fold vs 502
3. B6  97 fold vs 502
4. B2  141000 fold vs 502

Molecular target: TLR5 of the cell-based reporter assays
Assay: cell-based or functional assay
Remark: another data set of the same source

In order of falling “Signaling EC50 Normalized by CBLB502” value:
1. B11  54 fold vs CBLB502
2. B12  37 fold vs CBLB502
3. B9  4.6 fold vs CBLB502
4. B7  1.5 fold vs CBLB502
5. B13  1.3 fold vs CBLB502
6. B10  1.2 fold vs CBLB502
7. B8  0.9 fold vs CBLB502
